A protein production outcome set (Wang et al. 2014)

Assay: label from the status in PepcDB records

Sequence | protein production
MRRPAVTAGPAHVLQRPVKPDLSAILHCVQNCTGCRTVRQARPQRGDQIRVTFLCILSSVFPNDQTDHLRSVRPSGFRYRPRHLNSGLAPLPGTLLEEVSMRNPVLTVTPLALTLILSAAGAQSLQAAQSLYDQGKWQEAATAAAALKTSDGYALAAEATTNGAGLVADSQKKALFAKAQDYAKQAIAADKNNPEAYFELARAQGRLAQFSGILQSLGMAKDMKQNLDTAIKLKPNMASAYVALGLWNANLDSKGAIARSATGASKAQVVPNFEKAIALEANTPIHRVEYANALLLQGNKAGARAQLEKAAGMGADNFWEKRDVATAQAMLAKLK | failed
MRRQPSLTLRSTLAFALVAMLTVSGAGLYLYQSIEQTVLQRSDHAVLARLDHFRKLLRYDLTMDNLKGSPQLFENMLDSEEDIFIIGEPGKPPVVSVNPQHAPLPDLPTVAQDQPLRVDDLRSGMSLQGVPLRAAAAQVMSNGVEVRLQAAHLMVKEMAMLASFRQSIYIAVALAFLITAVLGYVLLRRGLRPLRKMAAHAAAITPASLHKRLDSHDTPVELQQLSNAFNAMLDRIDDGYRRLMQFSADLAHEIRTPVGSLMGHCQVALRQDRSVDEYQALLASNLEELERISRLVESILFLARADEAQAALERQPLDLHDELQRVAGYFEGLADERNLKLSPSGRGTLLADPILLRRALSNLVANAIRYADEDSEILIRVVTVDQQWRIEVENQGPVLPHATLARLFDRFYRGDASRHERSDSNGLGLAIVTAIMHLHGGCVEVAQPAVGRICFSLVFPAA | failed
MRRRKYPWKQADILIHRYCRRLTTGQRLAVIAVAFALFMAGCLYMLLSSLLGFGETGGGLQIEHIRPLDIKPEKDTTIHFKDYYDYGHSENQDTVRLVC | failed
MRRRVAYARDYGDHIMGKFKFPTAYTILFVLIALVAAMTWIVPAGKYQMVTNAALGKEVPVAGTYAPVEAQPQGITAVLLAPIDGLYNHQTYTAGAIDVALFVLIIGGFLGVVNKTGAIDAGIERVTTRLNGREEWMIPILMALFAAGGTIYGMAEESLPFYTLLVPVMMAARFDPLVAAATVLLGSGIGTLGSTINPFATVIAANAAGIPFTQGILLRVILLLVGYVICVYWVMRYARKVRNSPESSIVADKMAENQAHFLGNRSETMLEFTPTRKAILILFAASFAFMIYGVAVLGWWMAEISAVFLAAAVIVGVIARMGEETFTSTFIDGARDLLGVALIIGIARGIVVVMDNGMITHTILHSAENLVSGLSTTVFINVTYWLEVLLSFLVPSSSGLAVLTMPIMAPLADFAHVQRDLVVTAYQSASGVVNLITPTSAVVMGGLAIARVPWVRYLRWVAPLLLILTMLNMIVLSIAAMI | failed
MRRSDLHGTSIEIERKNVGERRYITGFDGLRVMALLGVIFYHLMPFTVPGGYLGVPIFFAVSGYLITDIFIQEWDRTGKIKLGSFYIRRLRRLYPTLVMVLVTSTAYMTLFAQNLLSHIRNIIWTNLVFVYNWWLVNNGQSYFDRYNGESPFTHLWYLSVLAQYYFIWPLILIVLLKIFGERRVQASGILFSLSIISSMLMTILYHPDTVNRVYYGSDTRVAPFLIGAALAFIWPSTRLKKALNARTNLIANILGGILILVMGITFFTMPGTTATPYYGGIFIFSILAVLMIAIIAHPSFMWNRLLTNPVFKWLGSRSYGIYMYQLPVMIFYEQKVTNIAAHPVLNTLAPLVIILVISELSYRYIEIPLAKFDYRQTFALLKKIFDLKSNLQWRRYLAIPAVLVVLIALFGAVTSPEKVVQKTDGLQTKLAKNSKEADKKNKEALEKQKETSAAKTKQKKAKLTKQEKEIAKKYQLTDQEMKFAAVTPLTGVGDSVLEDTGADLQEIFPTAYMSSKVGRQVDEAPGIIAELKRQKTLSDNVLINLGANGPISDKDVKAVEDAVGSKRHIFWVNVHVPTKTWEGSVNKTLDKATKQYKNLTVIDWFTPSKNQPGWFYGDYVHPNPDGSKQYATIVAKKIIKTLNK | failed
MRRVVIRTEALSCPLDGDEDSNELRLRPLVPDAQEWKYPKSKLFPRHAAWSCHSGGGGGGGGGRVFTNKVNAVEEFNLGGLKDSESDSDSE | failed
MRSETVSTHTKPVRPEPPAPAAEVPAGAFPPGQERDHDTRPSAPPRDQSPPPAPEADSRSAARPAPPTHPGTSSTVWVRRRLARLGAQRGTTMNPVLEPLVKTVRATHPKADIRLIERAYDVAAHYHRSQKRKSGDPYITHPLAVATILAELGMQEATIAAGLLHDTVEDTEYTLDQLRSDFGDEIAELVDGVTKLDKVKYGEATQAETVRKMVVAMARDIRVLVIKLCDRLHNMRTLRYLPQAKREKKARETLEIYAPLAHRLGMNTIKWELEDLAFATLYPKRFDEIARLVAERAPRRDVYLQEVIEIVSADLREAKIKATVRGRPKHYYSIYQKMIARNVGFDEIYDLVGIRVIVDSVRDCYAALGIIHARWNPVPGRFKDYIAMPKFNMYQSLHTTVIGPEGSPVELQIRTRAMHRRAEYGIAAHWKYKEERNNGGKAKGASTDMAWLRQLIDWQQETKDPGEFLESLRFDLSVQEVFVFTPRGDVIALPQGATPVDFAYAVHTEVGHRTVGARVNGRLVPLDSELHNGETVEIITAKTDDAGPSRDWLDFVKSARARNKIRQWFTKERREAAIEQGKEAIAKVMRKQELPVQRLFTSESLIALAHDLRYRDLDALYAAVGENQISAHKVVEKLIESVGSLDNNEEDIAEATTPIRVPRKRPTGNPGVVVQGDPDVWVRLSKCCTPVPGDAIIGFVTRGAGVSVHRDDCGNVKHLDPDRLVQVEWQPTGNSMFLVALQIEALDRTRLLSDITRVLSDQHVNILSATVQTTRDRVALSRFTFEMADPAHLGHVLKAVRSVDGVYDVYRVRN | failed
MRSFILRARSAPTDSQRLLDEIGGKCHTEILAHCMMNSLFTAQSHREDVVIHLVLESTRDYSRTITVEANEISDVGGFHEAALIALLVKALDASVGMGKEQTRVVQPGLTVRTISFEALLGELAEHHSLYMMDKKGDSIRDIKIGPNPCFILTDHIPMPKKSGNSMKRLGVEKISLGPKMLFASQCVTLIHNEIDHQEA | not failed
MRSFLKRTQCAQLRSTPSLIFSTGITHPAETALQRFKFLMYQVVASDLDGTLLSPDHTLSPYAKEPLKLLTARGINFVFATGRHHVDVGQIRDNLEIKSYMITSNGARVHDLDGNLIFAHNLDRDIASDLFGVVNDNPDIITNVYRDDEWFMNRHRPEEMRFFKEAVFKYALYEPGLLEPEGVSKVFFTCDSHEQLLPLEQAINARWGDRVNVSFSTLTCLEVMAGGVSKGHALEAVAKKLGYSLKDCIAFGDGMNDAEMLSMAGKGCIMGSAHQRLKDLHPELEVIGTNADDAVPHYLRKLYLS | failed
MRSISTGRMIDDSSDSVKGSVVWVPAKSIWITTMTVVAVVGGPLTFSWSAVIVFVLSTAITICLGHSVGMHRLLIHRSFSAPLWLEHLLVYLGTLVGMAGPFGMIYAHDIRDWAQRQRDCHDLYAHRRSFFVDALWQMHCAVALDEPPRFVVEERARHDRFYRLLEATWMAQQIPLALLLFSLGGLPWLVWGIAVRISVSLTGHWLVGHFAHRNGHQGWSVDDVAVQGYNLPRFGLVTFGESFHGNHHAFPESARLGIEPGQLDLGWHFIRLLAGLGLASAIKLPHTIVPRDGLRRVEVSGDTGEDHPVGQR | failed
MRSPYLIGVFLAAGKSRRMGQNKLALPLKGENIGSLSLKTALSSRLDHVLVVERTEHASLEWIGAPYHAPPFQKRWSLHVCQDAEKGQGHSVSSGVRKAESMGADGIVILLADQPQLSVDHLNALVALAPESFAVSSFLGAFTPPIYFSSTCFPYVKGLKGDEGARRLLKSGQLGAGAVLEAKDSGELDDIDTPRGILEHHHHHH | not failed
MRSRDFSSWIWGDALSLLQQADRLHRQLLRTGPAQAPCWEPPVDMIETESAVLIYVALPGVAAGDVAVRFDPDGISISGVRPLPALRNARIHGLEIPYGRFQRRIRLPLHALEPEAPTLADGCLTLTLKKLREAP | failed
MRSRPTEGNLLVSIGIPFLNPGPYLDLAVRSVFAQTYLNWELILVDDGSTDGSYERAVAIQDPRVRVLRDGQNKGLPARLNEIVRLAKGELVARMDADDAMHPLRLEKQVGFLQANPELDGVTTGAYLIDAEDRPIALLPGRQPSAQEVLARGGFLHPSLLARKSWFEAHPYSLDYPRAEDRELFVRTFKTSRLHVLSEPLYFYRWFGVPRGKTLRIGYRSERKVMWKYGPNLVGWGPSLRLIALSFGKELLTWFLEWTHLEKGFQTRRAFQPLLEMDQREALRTLKVIRETCVPGWDLEHHHHHH | failed
